Substrate in the data set: O=C(O)C(=O)O
The experiment in a line: purified protein. The following applies: typical values given as a range; decarboxylase activity; Mn enzyme.

B1: Oxalate Decarboxylase (OxDC), WT, His6-tagged (Bacillus subtilis subsp. subtilis str. 168) (protein)
chain: MKKQNDIPQPIRGDKGATVKIPRNIERDRQNPDMLVPPETDHGTVSNMKFSFSDTHNRLEKGGYAREVTVRELPISENLASVNMRLKPGAIRELHWHKEAEWAYMIYGSARVTIVDEKGRSFIDDVGEGDLWYFPSGLPHSIQALEEGAEFLLVFDDGSFSENSTFQLTDWLAHTPKEVIAANFGVTKEEISNLPGKEKYIFENQLPGSLKDDIVEGPNGEVPYPFTYRLLEQEPIESEGGKVYIADSTNFKVSKTIASALVTVEPGAMRELHWHPNTHEWQYYISGKARMTVFASDGHARTFNYQAGDVGYVPFAMGHYVENIGDEPLVFLEIFKDDHYADVSLNQWLAMLPETFVQAHLDLGKDFTDVLSKEKHPVVKKKCSK
For B1, the kcat is listed as 50 − 60 s^-1.

The values above are taken from doi:10.1101/426874v1.
